Assay results as given in the supplement of paper PMC10567573.

B1: SETD8 (parent)
chain: FVVEYHGDLIEITDAKKREALYAQ
B2: GLTSCR2 (parent)
chain: LARRRRRRQARREAEADKPRRLGR

Variants of: B1
Assay: protein stability index of a GFP-peptide fusion (GPS, HEK-293T) (PSI 1-6); higher = more stable
Conditions: c terminus: a fixed tail appended
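Further: lentivirally expressed fusions sorted by FACS into six bins by GFP to DsRed ratio, PSI derived from sequencing read proportions per bin multiplied by bin number.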

Q: For FVVEYHGDLIEITDAKKREARYAQ [L21R], which protein stability index is on record?
A: 1.39

Q: With FVVEYHGDLIEITDAKKREAVYAQ [L21V] as the variant, how does the protein stability index read?
A: 1.91

Q: Which protein stability index does the source give for FVVEYHGDLIEITDAKKREASYAQ [L21S] here?
A: 2.36

Q: With FVVEYHGDLIEITDAKKREAQYAQ [L21Q] as the variant, how does the protein stability index read?
A: 2.21

Q: Which protein stability index does the source give for FVVEYHGDLIEITDAKKREAWYAQ [L21W] here?
A: 2.22

Q: With FVVEYHGDLIEITDAKKREATYAQ [L21T] as the variant, how does the protein stability index read?
A: 1.94

Q: With FVVEYHGDLIEITDAKKREAYYAQ [L21Y] as the variant, how does the protein stability index read?
A: 1.97

Q: Which protein stability index does the source give for FVVEYHGDLIEITDAKKREALQAQ [Y22Q] here?
A: 2.06

Q: Which protein stability index does the source give for FVVEYHGDLIEITDAKKREALGAQ [Y22G] here?
A: 1.43

Q: Which protein stability index does the source give for FVVEYHGDLIEITDAKKREALSAQ [Y22S] here?
A: 1.68

Q: With FVVEYHGDLIEITDAKKREALMAQ [Y22M] as the variant, how does the protein stability index read?
A: 2.95

Q: Which protein stability index does the source give for FVVEYHGDLIEITDAKKREALRAQ [Y22R] here?
A: 1.99

Q: With FVVEYHGDLIEITDAKKREALVAQ [Y22V] as the variant, how does the protein stability index read?
A: 2.08

Q: With FVVEYHGDLIEITDAKKREALEAQ [Y22E] as the variant, how does the protein stability index read?
A: 2.6

Q: Which protein stability index does the source give for FVVEYHGDLIEITDAKKREALNAQ [Y22N] here?
A: 3.26

Q: For FVVEYHGDLIEITDAKKREALIAQ [Y22I], which protein stability index is on record?
A: 1.94

Q: For FVVEYHGDLIEITDAKKREALTAQ [Y22T], which protein stability index is on record?
A: 1.76

Q: With FVVEYHGDLIEITDAKKREALDAQ [Y22D] as the variant, how does the protein stability index read?
A: 2.21

Q: With FVVEYHGDLIEITDAKKREALPAQ [Y22P] as the variant, how does the protein stability index read?
A: 2.29

Q: With FVVEYHGDLIEITDAKKREALLAQ [Y22L] as the variant, how does the protein stability index read?
A: 1.47

Q: For FVVEYHGDLIEITDAKKREALWAQ [Y22W], which protein stability index is on record?
A: 1.56

Q: For FVVEYHGDLIEITDAKKREALCAQ [Y22C], which protein stability index is on record?
A: 2.13

Q: Which protein stability index does the source give for FVVEYHGDLIEITDAKKREALFAQ [Y22F] here?
A: 1.79

Q: With FVVEYHGDLIEITDAKKREALHAQ [Y22H] as the variant, how does the protein stability index read?
A: 1.84

Q: Which protein stability index does the source give for FVVEYHGDLIEITDAKKREALKAQ [Y22K] here?
A: 2.88

Q: With FVVEYHGDLIEITDAKKREALYAS [Q24S] as the variant, how does the protein stability index read?
A: 1.6

Q: For FVVEYHGDLIEITDAKKREALYAT [Q24T], which protein stability index is on record?
A: 2.09

Q: For FVVEYHGDLIEITDAKKREALYAR [Q24R], which protein stability index is on record?
A: 2.89

Q: With FVVEYHGDLIEITDAKKREALYAK [Q24K] as the variant, how does the protein stability index read?
A: 1.86

Q: Which protein stability index does the source give for FVVEYHGDLIEITDAKKREALYAH [Q24H] here?
A: 1.64

Q: For FVVEYHGDLIEITDAKKREALYAP [Q24P], which protein stability index is on record?
A: 2.05

Q: Which protein stability index does the source give for FVVEYHGDLIEITDAKKREALYAD [Q24D] here?
A: 1.77

Q: For FVVEYHGDLIEITDAKKREALYAL [Q24L], which protein stability index is on record?
A: 1.51

Q: With FVVEYHGDLIEITDAKKREALYAF [Q24F] as the variant, how does the protein stability index read?
A: 1.5

Q: Which protein stability index does the source give for FVVEYHGDLIEITDAKKREALYAN [Q24N] here?
A: 1.71

Q: For FVVEYHGDLIEITDAKKREALYAV [Q24V], which protein stability index is on record?
A: 1.85

Q: For FVVEYHGDLIEITDAKKREALYAY [Q24Y], which protein stability index is on record?
A: 1.32

Q: Which protein stability index does the source give for FVVEYHGDLIEITDAKKREALYAM [Q24M] here?
A: 1.75

Q: Which protein stability index does the source give for FVVEYHGDLIEITDAKKREALYAE [Q24E] here?
A: 1.86

Q: Which protein stability index does the source give for FVVEYHGDLIEITDAKKREALYAI [Q24I] here?
A: 1.75

Q: Which protein stability index does the source give for FVVEYHGDLIEITDAKKREALYAA [Q24A] here?
A: 2.5

Q: For FVVEYHGDLIEITDAKKREALYAW [Q24W], which protein stability index is on record?
A: 1.63

Q: Which protein stability index does the source give for FVVEYHGDLIEITDAKKREALYAC [Q24C] here?
A: 1.35

Q: With FVVEYHGDLIEITDAKKREALYAG [Q24G] as the variant, how does the protein stability index read?
A: 1.37

Q: For FVVEYHGDLIEITDAKKREALYPQ [A23P], which protein stability index is on record?
A: 1.89

Q: Which protein stability index does the source give for FVVEYHGDLIEITDAKKREALYQQ [A23Q] here?
A: 1.85

Q: Which protein stability index does the source give for FVVEYHGDLIEITDAKKREALYWQ [A23W] here?
A: 2.12

Q: For FVVEYHGDLIEITDAKKREALYCQ [A23C], which protein stability index is on record?
A: 1.29

Q: For FVVEYHGDLIEITDAKKREALYFQ [A23F], which protein stability index is on record?
A: 2.57

Q: For FVVEYHGDLIEITDAKKREALYYQ [A23Y], which protein stability index is on record?
A: 1.3

Q: With FVVEYHGDLIEITDAKKREALYLQ [A23L] as the variant, how does the protein stability index read?
A: 2.36

Q: Which protein stability index does the source give for FVVEYHGDLIEITDAKKREALYDQ [A23D] here?
A: 1.79

Q: For FVVEYHGDLIEITDAKKREALYEQ [A23E], which protein stability index is on record?
A: 1.84

Q: With FVVEYHGDLIEITDAKKREALYHQ [A23H] as the variant, how does the protein stability index read?
A: 2.1

Q: Which protein stability index does the source give for FVVEYHGDLIEITDAKKREALYRQ [A23R] here?
A: 2.3

Q: With FVVEYHGDLIEITDAKKREALYVQ [A23V] as the variant, how does the protein stability index read?
A: 1.65

Q: Which protein stability index does the source give for FVVEYHGDLIEITDAKKREALYNQ [A23N] here?
A: 1.69

Q: Which protein stability index does the source give for FVVEYHGDLIEITDAKKREALYMQ [A23M] here?
A: 1.83

Q: Which protein stability index does the source give for FVVEYHGDLIEITDAKKREALYSQ [A23S] here?
A: 1.92

Q: With FVVEYHGDLIEITDAKKREALYTQ [A23T] as the variant, how does the protein stability index read?
A: 2.21

Q: Which protein stability index does the source give for FVVEYHGDLIEITDAKKREALYIQ [A23I] here?
A: 1.6

Q: With FVVEYHGDLIEITDAKKREALYGQ [A23G] as the variant, how does the protein stability index read?
A: 1.13

Q: Which protein stability index does the source give for FVVEYHGDLIEITDAKKREALYKQ [A23K] here?
A: 2.17

Variants of: B2
Assay: as above
Conditions: c terminus: a fixed tail appended

Q: For LARRRRRRQARREAEADKPRRLGE [R24E], which protein stability index is on record?
A: 4.12

Q: With LARRRSRRQARREAEADKPRRLGR [R6S] as the variant, how does the protein stability index read?
A: 4.86

Q: For LARDRRRRQARREAEADKPRRLGR [R4D], which protein stability index is on record?
A: 4.64

Q: For LARVRRRRQARREAEADKPRRLGR [R4V], which protein stability index is on record?
A: 3.97

Q: With LARSRRRRQARREAEADKPRRLGR [R4S] as the variant, how does the protein stability index read?
A: 4.17

Q: Which protein stability index does the source give for LARYRRRRQARREAEADKPRRLGR [R4Y] here?
A: 4.16

Q: With RARRRRRRQARREAEADKPRRLGR [L1R] as the variant, how does the protein stability index read?
A: 5.14

Q: With PARRRRRRQARREAEADKPRRLGR [L1P] as the variant, how does the protein stability index read?
A: 5.18

Q: For YARRRRRRQARREAEADKPRRLGR [L1Y], which protein stability index is on record?
A: 4.28

Q: With LARRRRRRQARTEAEADKPRRLGR [R12T] as the variant, how does the protein stability index read?
A: 4.98

Q: With LARRRRRRQARREAEAFKPRRLGR [D17F] as the variant, how does the protein stability index read?
A: 4.73

Q: For LAMRRRRRQARREAEADKPRRLGR [R3M], which protein stability index is on record?
A: 4.41

Q: For LARRRRRRQAHREAEADKPRRLGR [R11H], which protein stability index is on record?
A: 4.74

Q: Which protein stability index does the source give for LARRRRRRQACREAEADKPRRLGR [R11C] here?
A: 4.64

Q: Which protein stability index does the source give for LARRRRRRQARREAEADPPRRLGR [K18P] here?
A: 5.41

Q: Which protein stability index does the source give for LARRRRRRQARREAAADKPRRLGR [E15A] here?
A: 4.78

Q: For LARRRRRRQARREACADKPRRLGR [E15C], which protein stability index is on record?
A: 4.68

Q: Which protein stability index does the source give for LARRRRRRQARREALADKPRRLGR [E15L] here?
A: 4.16

Q: Which protein stability index does the source give for LARRRRRRRARREAEADKPRRLGR [Q9R] here?
A: 4.95

Q: For LARRRRRRCARREAEADKPRRLGR [Q9C], which protein stability index is on record?
A: 4.4

Q: With LARRTRRRQARREAEADKPRRLGR [R5T] as the variant, how does the protein stability index read?
A: 4.15

Q: With LARRKRRRQARREAEADKPRRLGR [R5K] as the variant, how does the protein stability index read?
A: 4.54

Q: With LARRRRRRQARREAEADKPRDLGR [R21D] as the variant, how does the protein stability index read?
A: 4.65

Q: Which protein stability index does the source give for LARRRRRRQARREAEADKPRMLGR [R21M] here?
A: 4.52

Q: Which protein stability index does the source give for LARRRRRRQARREAEADKPRRLLR [G23L] here?
A: 4.18

Q: For LARRRRRRQARREAEADKPRRLYR [G23Y], which protein stability index is on record?
A: 4.44

Q: For LARRRRRRQARREAENDKPRRLGR [A16N], which protein stability index is on record?
A: 4.91

Q: With LARRRRRRQARREAETDKPRRLGR [A16T] as the variant, how does the protein stability index read?
A: 4.76

Q: Which protein stability index does the source give for LARRRRRRQARREWEADKPRRLGR [A14W] here?
A: 4.45

Q: With LARRRRRRQARRKAEADKPRRLGR [E13K] as the variant, how does the protein stability index read?
A: 4.37

Q: For LARRRRRRQARRNAEADKPRRLGR [E13N], which protein stability index is on record?
A: 4.59
